Measured values as given in EP4755449A2 (CHUGAI SEIYAKU KABUSHIKI KAISHA, dated 2026).
One block for each binder: values may come before it.

Experiments:
[1] = target: T1, cynomolgus monkey latent myostatin (cynomolgus monkey, UniProt Q95J86 25-266; Q95J86 267-375, limits assumed); test: SPR affinity condition pH5.8 37C; pH 5.8
T1 construct: also called cyno latent myostatin
T1 sequence 1: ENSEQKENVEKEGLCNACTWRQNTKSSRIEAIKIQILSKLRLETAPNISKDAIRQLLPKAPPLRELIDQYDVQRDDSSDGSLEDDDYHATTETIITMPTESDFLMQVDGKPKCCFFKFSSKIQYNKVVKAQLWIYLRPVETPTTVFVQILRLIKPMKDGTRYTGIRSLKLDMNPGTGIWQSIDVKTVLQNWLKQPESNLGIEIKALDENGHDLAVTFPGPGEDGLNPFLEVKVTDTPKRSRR
T1 sequence 2: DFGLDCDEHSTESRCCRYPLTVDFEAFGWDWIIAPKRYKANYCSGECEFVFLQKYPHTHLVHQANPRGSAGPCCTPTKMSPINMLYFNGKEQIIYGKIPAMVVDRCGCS

[2] = target: T2, mouse latent myostatin (mouse, UniProt O08689 26-267; O08689 268-376); test: SPR affinity condition pH5.8 37C; pH 5.8
T2 sequence 1: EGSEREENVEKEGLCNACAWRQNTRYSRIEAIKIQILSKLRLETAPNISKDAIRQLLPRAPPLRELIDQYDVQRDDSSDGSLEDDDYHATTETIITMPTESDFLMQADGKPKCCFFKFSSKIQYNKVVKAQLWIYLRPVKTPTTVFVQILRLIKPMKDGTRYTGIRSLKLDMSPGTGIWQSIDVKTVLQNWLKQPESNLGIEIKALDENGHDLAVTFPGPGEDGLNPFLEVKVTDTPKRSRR
T2 sequence 2: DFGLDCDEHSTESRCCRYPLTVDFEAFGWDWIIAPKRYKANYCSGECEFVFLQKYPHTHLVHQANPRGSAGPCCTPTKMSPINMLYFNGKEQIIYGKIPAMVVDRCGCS

[3] = target: T3, human latent myostatin (human, UniProt O14793 25-266; O14793 267-375); test: SPR affinity condition pH5.8 37C; pH 5.8
T3 construct: non-covalent complex of two propeptides and the mature homodimer; also called human myostatin latent form
T3 sequence 1: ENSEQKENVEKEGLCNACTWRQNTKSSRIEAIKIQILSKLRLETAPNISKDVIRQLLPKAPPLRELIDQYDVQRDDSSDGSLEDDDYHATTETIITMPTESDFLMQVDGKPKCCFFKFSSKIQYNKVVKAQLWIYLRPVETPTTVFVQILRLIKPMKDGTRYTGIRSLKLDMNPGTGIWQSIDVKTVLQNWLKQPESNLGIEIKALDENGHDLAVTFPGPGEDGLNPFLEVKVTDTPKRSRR
T3 sequence 2: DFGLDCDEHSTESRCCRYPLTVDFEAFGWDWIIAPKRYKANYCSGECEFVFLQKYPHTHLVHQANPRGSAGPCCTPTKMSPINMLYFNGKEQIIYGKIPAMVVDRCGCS

[4] = target: T1, cynomolgus monkey latent myostatin; test: SPR affinity condition pH7.4 37C; pH 7.4
[5] = target: T2, mouse latent myostatin; test: SPR affinity condition pH7.4 37C; pH 7.4
[6] = target: T3, human latent myostatin; test: SPR affinity condition pH7.4 37C; pH 7.4
[7] = target: T1, cynomolgus monkey latent myostatin; test: SPR avidity condition pH7.4 37C; pH 7.4
[8] = target: T2, mouse latent myostatin; test: SPR avidity condition pH7.4 37C; pH 7.4
[9] = target: T3, human latent myostatin; test: SPR avidity condition pH7.4 37C; pH 7.4
[10] = target: T3, human latent myostatin; test: SPR, dissociation phase at pH5.8
[11] = target: T3, human latent myostatin; test: SPR 37C pH7.4
[12] = target: T1, cynomolgus monkey latent myostatin; test: SPR avidity condition pH5.8 37C; pH 5.8
[13] = target: T2, mouse latent myostatin; test: SPR avidity condition pH5.8 37C; pH 5.8
[14] = target: T3, human latent myostatin; test: SPR avidity condition pH5.8 37C; pH 5.8
[15] = target: T1, cynomolgus monkey latent myostatin; test: SPR affinity condition pH7.4 37C
[16] = target: T2, mouse latent myostatin; test: SPR affinity condition pH7.4 37C
[17] = target: T3, human latent myostatin; test: SPR affinity condition pH7.4 37C
[18] = target: T4, GST-hMSTN 141-241aa (human, UniProt A1C2U3 141-241 (Pongo pygmaeus entry)); test: Western blot
T4 construct: not shown: GST tag of pGEX4.1 vector
T4 sequence: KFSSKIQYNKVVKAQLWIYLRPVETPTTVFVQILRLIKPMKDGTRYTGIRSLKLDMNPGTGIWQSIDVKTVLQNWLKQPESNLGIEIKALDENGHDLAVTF

[19] = target: T5, GST-hMSTN 121-220aa (human, UniProt A1C2U3 121-220 (Pongo pygmaeus entry)); test: Western blot
T5 construct: not shown: GST tag of pGEX4.1 vector
T5 sequence: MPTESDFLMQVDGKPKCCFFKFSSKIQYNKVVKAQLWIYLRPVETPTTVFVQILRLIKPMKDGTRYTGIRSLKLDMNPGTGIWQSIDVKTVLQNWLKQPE

[20] = target: T6, GST-hMSTN 101-200aa (human, UniProt A1C2U3 101-200 (Pongo pygmaeus entry)); test: Western blot
T6 construct: not shown: GST tag of pGEX4.1 vector
T6 sequence: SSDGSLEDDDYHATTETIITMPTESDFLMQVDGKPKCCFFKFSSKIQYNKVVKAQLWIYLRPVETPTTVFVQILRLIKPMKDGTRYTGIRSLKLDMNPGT

Kd [1]: 0.139 nM
koff [1]: 0.000196 s⁻¹
kon [1]: 1.41e+06 M⁻¹ s⁻¹
Kd [2]: 0.0438 nM
koff [2]: 7.08e-05 s⁻¹
kon [2]: 1.62e+06 M⁻¹ s⁻¹
Kd [3]: 0.215 nM
koff [3]: 0.000235 s⁻¹
kon [3]: 1.09e+06 M⁻¹ s⁻¹
Kd [4]: 0.209 nM
koff [4]: 0.000213 s⁻¹
kon [4]: 1.02e+06 M⁻¹ s⁻¹
Kd [5]: 0.122 nM
koff [5]: 0.00016 s⁻¹
kon [5]: 1.31e+06 M⁻¹ s⁻¹
Kd [6]: 0.23 nM
koff [6]: 0.000245 s⁻¹
kon [6]: 1.07e+06 M⁻¹ s⁻¹
Kd [7]: 0.0666 nM
koff [7]: 8.08e-05 s⁻¹
kon [7]: 1.21e+06 M⁻¹ s⁻¹
Kd [8]: 0.0471 nM
koff [8]: 7.18e-05 s⁻¹
kon [8]: 1.52e+06 M⁻¹ s⁻¹
Kd [9]: 0.075 nM
koff [9]: 9.52e-05 s⁻¹
kon [9]: 1.27e+06 M⁻¹ s⁻¹
koff [10]: 2.92e-05 s⁻¹
Kd [11]: 0.075 nM
koff [11]: 9.52e-05 s⁻¹
kon [11]: 1.27e+06 M⁻¹ s⁻¹
Kd [12]: 0.00883 nM
koff [12]: 1.58e-05 s⁻¹
kon [12]: 1.79e+06 M⁻¹ s⁻¹
Kd [13]: 0.0087 nM
koff [13]: 2.02e-05 s⁻¹
kon [13]: 2.32e+06 M⁻¹ s⁻¹
Kd [14]: 0.0797 nM
koff [14]: 0.000128 s⁻¹
kon [14]: 1.6e+06 M⁻¹ s⁻¹
B1: MS_M103205H000-SG1/M103202L000-SK1 (antibody, human IgG1, kappa, V domains shown)
VH: QVTLKESGPVLVKPTETLTLTCTVSGIDLSSYDISWVRQAPGKGLEWVGIISYAGSTYYASWAKGRLTISKDTSKNQVVLTMTNMDPVDTATYYCARGVPAYSTGGDLWGQGTLVTVSS
VL: DIVMTQSPATLSLSPGERATLSCQSSQSVYDNNWLSWFQQKPGQPPKLLIYWASTLASGVPSRFSGSGSGTDFTLTISSLQPEDAATYYCAGGYGGGLYAFGQGTKVEIKR
notes: humanized; also called MS1032LO00-SG1; Ab001

Kd [7]: 0.165 nM
koff [7]: 0.000197 s⁻¹
kon [7]: 1.19e+06 M⁻¹ s⁻¹
Kd [8]: 0.149 nM
koff [8]: 0.000217 s⁻¹
kon [8]: 1.45e+06 M⁻¹ s⁻¹
Kd [15]: 0.954 nM
koff [15]: 0.0011 s⁻¹
kon [15]: 1.15e+06 M⁻¹ s⁻¹
Kd [16]: 0.713 nM
koff [16]: 0.00107 s⁻¹
kon [16]: 1.5e+06 M⁻¹ s⁻¹
Kd [17]: 0.788 nM
koff [17]: 0.00129 s⁻¹
kon [17]: 1.64e+06 M⁻¹ s⁻¹
Kd [12]: 8.9 nM
koff [12]: 0.0068 s⁻¹
kon [12]: 764000 M⁻¹ s⁻¹
Kd [13]: 6.15 nM
koff [13]: 0.00625 s⁻¹
kon [13]: 1.02e+06 M⁻¹ s⁻¹
Kd [14]: 19.5 nM
koff [14]: 0.0242 s⁻¹
kon [14]: 1.22e+06 M⁻¹ s⁻¹
B2: MS_M103205H714-SG1/M103202L861-SK1 (antibody, human IgG1, kappa, V domains shown)
VH: QVTLKESGPVLVKPTETLTLTCTVSGIDLSHTDISWVRQAPGKGLEWVGIISYAGSTYYASWAKGRLTISKDTSKNQVVLTMTNMDPVDTATYYCARGVPAYSHGGDLWGQGTLVTVSS
VL: DIVMTQSPATLSLSPGERATLSCTSSQSVYHNNWLSWFQQKPGQPPKLLIYWASTLAYGVPSRFSGSGSGTDFTLTISSLQPEDAATYYCAGGYGGGRYAFGQGTKVEIKR
notes: also called MS1032LO01-SG1

binding result [18]: no binding
binding result [19]: no binding
binding result [20]: no binding
B3: MST1032 (as used in Example 26) (antibody, V domains shown)
VH: QSLEESGGRLVTPGGSLTVTCRVSGIDLSSYDISWVRQAPGKGLEWIGIISYAGSTYYASWAKGRFTISKTSTTVDLKMTSLTTEDTATYFCARGVPAYSTGGDLWGPGTLVTVSS
VL: AQVLTQTASSVSAAVGGTVTINCQSSQSVYDNNWLSWFQQKPGQPPKLLIYWASTLASGVPSRFKGSGSGTQFTLTISDLECDDAATYYCAGGYGGGLYAFGGGTKVEIK
